Experimental data from the RNAGym collection of RNA variant scans (doi:10.7554/elife.90254).

B1: OR4K15 (parent)
chain: GUUAACGGUCAUAGGCCAUGGAAACUAGGAGCACCAUUUCGCUGCCAGUGAAGAAAUGAACAAAGAAAAUCUGGGCCAGGCAGGCAUCAAAAGAAAUAGUCUUGCGCUCAACCAGAAAGUCUGUAAUCAUUUUAAGGGUA

Variants of: B1
Experiment: self-cleavage, relative activity (ratio to wild type); higher = more cleavage; in vitro, sequencing; the parent is a self-cleaving ribozyme

Variant	self-cleavage
A36G U72C	0.14
U38C U122C	0.8
A36G G106A	0.02
A36U U38C	1.51
U37C A114U	0.15
U38C A86G	1.65
U38C A86C	1.31
U37A U108C	0
U37A U38G	2.08
U37C G137A	1.64
U38G A86U	1.6
A36G C128A	1.16
U38C A60C	2.1
U37G A62G	1.44
A36U U87C	1.76
U37G A68G	1.5
U37C A54G	1.51
U37G U100C	1.67
A36U U72C	0.32
A36U U72A	0.37
U37C	1.27
U37G	1.62
U37A	1.27
U38A A67G	0.89

Variant	self-cleavage
A36U C113U	0.02
U37C A91G	1.36
U37C A91U	2
A36G G65U	1.06
U38A U108C	0.01
U38C G80U	0.06
U37C A55G	1.59
A36G A111C	0
A36G A111G	0.03
U38G C113U	0.07
U38A A98G	0.91
A36U A126G	0.99
A36U A126U	1.63
A36U A98U	2.42
U37C A68U	1.5
U38C A59G	0.61
U38A U102C	1.99
A36G U133C	2.18
U37C A95U	1.73
U37C U124C	0.62
U37C U124A	0.21
U37A A68G	0.51
U39A	1.35
A36U U97A	2.69

Variant	self-cleavage
A36U U97C	0.37
U38G A91G	0.38
U38C A96U	1.66
A36U A90G	1.74
U37G A60G	1.48
U38C U133A	1.64
U37C U102A	1.05
U38A A56G	0.94
U37C U72C	0.26
U37C U72A	0.51
U37C C105U	0.15
U38C C121U	1.86
U38C C77U	2.04
U37A A96U	1.83
U37A A96G	2.31
A36U A89G	1.41
U38A A114G	0.96
U37C A96G	1.36
U37C A96U	1.84
U38C G93A	2.41
U38C G93U	2.26
U37C A86G	1.47
U37C U70C	0.2
U38A U120C	1.12

Variant	self-cleavage
A36U A111G	0.02
U37G U131C	1.37
U38A A47U	1.31
U38A A47G	1.59
U38C A114G	0.75
U37C U39A	1.55
U37C A62G	1.57
A36G G123A	1.46
U38G U108C	0.03
U38C U97C	1.57
U38C A110G	0.17
A36G A118U	0.73
A36G A118G	1.47
A36G A118C	1.46
U37A C61U	0.86
U38C A111G	0.02
A36G U131C	1.59
A36G U131A	0.59
U38C C109A	0.51
U37C A94U	1.67
U37G A55G	1.07
U38C C45U	1.23
U37G A47G	1.16
U38C U131C	1.33

Variant	self-cleavage
U37C A135G	0.95
U38C U72G	0.27
U38C U72C	0.27
U38C U72A	0.11
A36U U39C	1.03
U38C A95G	1.58
U37G A91G	1.82
A36U C128A	1.18
U38C G44A	1.16
A36U G48A	1.22
U37C G136U	1.97
A36U C107G	0.03
A36G U43G	1.28
U37A A135U	2.22
U39A A55G	1.53
U38C A69U	0.9
A36U U70G	1.53
U38C A78C	0.46
U38C A78U	0.35
U38C A78G	0.2
U38A G83U	0.84
U38C G99C	0.34
U38G A47G	1.78
U38C C40A	1.48

Variant	self-cleavage
A36G A110G	0.07
A36G A110C	0.39
U38C A54G	1.17
U38C A54U	2.56
U38A A91G	1.4
A36U A66U	1.05
U37C A111U	0.15
U37C A111G	0.03
A36G G79A	0.1
U37G U130C	0.05
A36G C71U	0.31
A36U A82U	0.31
U37G A89G	1.75
U38G A118G	0.95
U38C C113U	0.14
U38A A117U	0.73
U38A A117G	2.22
U37C C101A	0.22
U37C C101U	0.78
A36G U37G	1.45
U37C G74A	0.31
A36G G99A	0.74
A36G G83U	0.41
U37A A52G	2.37

Variant	self-cleavage
A36G A134U	1.6
A36U A54C	1.73
A36U A54G	1.02
A36U G106A	0.02
A36U A59U	1.33
A36U A59G	1.26
A36U U127C	0.93
A36U A78G	0.21
U39A A66U	1.74
A36G U38C	1.19
A36U U49C	2.04
U38C U120A	1.76
U38A U131C	1.16
A36U A47G	1.03
A36U A47U	0.69
U38C G119U	1.69
A36U A116G	0.96
A36U A116U	0.5
A36G U49A	1.26
A36G G136U	1.95
U38C U132A	1.77
U38C U43C	1.59
U38C A64G	1.45
